Reference: publication PMC2063705 (The Journal of Cell Biology, 2006)

Biological target: microtubules polymerized from purified tubulin, stabilized with paclitaxel (UniProt Q6B856 1-445)
Assay: co-sedimentation

Kd	Binder
1100 ± 200 nM	wild-type p150^Glued NH2-terminal residues 1–333 (domain or fragment, human, UniProt Q14203-1 1-333, looked up, [35S]methionine label (microtubule binding assay)) MAQSKRHVYSRTPSGSRMSAEASARPLRVGSRVEVIGKGHRGTVAYVGATLFATGKWVGVILDEAKGKNDGTVQGRKYFTCDEGHGIFVRQSQIQVFEDGADTTSPETPDSSASKVLKREGTDTTAKTSKLRGLKPKKAPTARKTTTRRPKPTRPASTGVAGASSSLGPSGSASAGELSSSEPSTPAQTPLAAPIIPTPVLTSPGAVPPLPSPSKEEEGLRAQVRDLEEKLETLRLKRAEDKAKLKELEKHKIQLEQVQEWKSKMQEQQADLQRRLKEARKEAKEALEAKERYMEEMADTADAIEMATLDKEMAEERAESLQQEVEALKERVD
2600 ± 500 nM	G59S p150^Glued NH2-terminal residues 1–333 (domain or fragment, human, UniProt Q14203-1 1-333, looked up, [35S]methionine label (microtubule binding assay)) MAQSKRHVYSRTPSGSRMSAEASARPLRVGSRVEVIGKGHRGTVAYVGATLFATGKWVSVILDEAKGKNDGTVQGRKYFTCDEGHGIFVRQSQIQVFEDGADTTSPETPDSSASKVLKREGTDTTAKTSKLRGLKPKKAPTARKTTTRRPKPTRPASTGVAGASSSLGPSGSASAGELSSSEPSTPAQTPLAAPIIPTPVLTSPGAVPPLPSPSKEEEGLRAQVRDLEEKLETLRLKRAEDKAKLKELEKHKIQLEQVQEWKSKMQEQQADLQRRLKEARKEAKEALEAKERYMEEMADTADAIEMATLDKEMAEERAESLQQEVEALKERVD
